Results from patent publication US20200181597A1, “Composition and Application of Arginine-depleting Agents for Cancer, Obesity, Metabolic Disorders, and Related Complications and Comorbidities” (THE HONG KONG POLYTECHNIC UNIVERSITY, priority 2018, published 2020).

Columns and labels:
[1] = Enzyme kinetics after metal ion substitution; format: biochemical
Description: Wild type arginase typically includes a Mn^2+ metal ion (D′Antonio & Christianson, 2011, Biochemistry, 50:8018-27). […] Purified N-ABD094-rhArg (SEQ ID NO: 50) in 20 mM Tris-HCl buffer (pH 7.4) was mixed with 20 mM of different divalent metal ions (Mn^2+, Ni^2+ or Co^2+), and was incubated at 52-55° C. for 15-60 min and then buffer exchanged with PBS buffer (pH 7.4).
Samples were subjected to enzyme activity and enzyme kinetic studies to determine the specific activity and catalytic efficiency (kcat/Km). Samples were applied to inductively coupled plasma atomic emission spectroscopy (ICP-OES, Agilent 700 Series ICP optical emission spectrometer) for quantitative analysis of metal content.

[2] = Prevention of HFD-induced obesity, male mice; format: in vivo, C57BL/6J male mice
Text: To determine the efficacy of N-ABD094-rhArg (SEQ ID NO: 50) in preventing mice from diet-induced obesity and associated metabolic disorders, C57BL/6J male mice were fed a high-fat diet containing 60 kcal % fat (HFD; Research Diets, D12492) from 8 week old for 12 weeks, and concurrently received i.p. injection of 200-300U N-ABD094-rhArg (SEQ ID NO: 50) or saline as vehicle control at 7-day intervals. C57BL/6J mice fed a matched low fat diet containing 10 kcal % fat (LFD; Research Diets, D12450J) and injected with saline served as the lean control of various measurements.
Two cohorts, with n=5 in each group, had been separately conducted. Mice were housed in group of 5. Similar results were obtained in the two independent cohorts. Data of one cohort of mice were summarized in Examples 18-22.

B1: N-ABD094-rhArg: albumin binding domain ABD094 fused N-terminally to recombinant human arginase I, SEQ ID NO: 50 (protein)
chain: MHHHHHHDEAVDANSLAEAKEAANAELDSYGVSDFYKRLIDKAKTVEGVEALKDAILAALPSGSNNNNNNGSGGMSAKSRTIGIIGAPFSKGQPRGGVEEGPTVLRKAGLLEKLKEQECDVKDYGDLPFADIPNDSPFQIVKNPRSVGKASEQLAGKVAEVKKNGRISLVLGGDHSLAIGSISGHARVHPDLGVIWVDAHTDINTPLTTTSGNLHGQPVSFLLKELKGKIPDVPGFSWVTPCISAKDIVYIGLRDVDPGEHYILKTLGIKYFSMTEVDRLGIGKVMEETLSYLLGRKKRPIHLSFDVDGLDPSFTPATGTPVVGGLTYREGLYITEEIYKTGLLSGLDIMEVNPSLGKTPEEVTRTVNTAVAITLACFGLAREGNHKPIDYLNPPK
modifications: Mn2+; N-ABD094-rhArg, Synthesized in the Lab
Km [1]: 1.37 to 1.89 mM | kcat [1]: 82 to 98 s⁻¹ | HFD-induced downregulation of Acox1 in BAT ([2]; 12 weeks HFD): block the downregulation | HFD-induced upregulation of adipogenic transcription factors and lipogenic enzymes in the liver ([2]; 12 weeks HFD): significantly suppress | mRNA of Ucp1 and Pgc1α in BAT ([2]; 12 weeks HFD): significantly upregulated | mRNA of proinflammatory adipokines (Mcp1, Il1b, Tnfa) in perigonadal WAT ([2]; 12 weeks HFD): suppress the upregulation | serum levels of Mcp1 (ELISA) ([2]; 12 weeks HFD): suppress an elevation | weight of kidney, pancreas and heart ([2]; 12 weeks HFD): effectively prevent weight gain | weight gain and expansion of WAT caused by HFD ([2]; 200-300U i.p. at 7-day intervals, 12 weeks, concurrent with HFD): effectively prevented | adipocyte hypertrophy in WAT (histology) ([2]; 200-300U weekly, 12 weeks, HFD): prominently suppressed | mRNA of Pparg, Srebp1c, Acc1, Scd1 in gWAT ([2]; 200-300U weekly, 12 weeks, HFD): dramatic downregulation | mRNA of Pparg, Srebp1c, Acc1, Scd1 in skeletal muscle ([2]; 200-300U weekly, 12 weeks, HFD): significantly downregulated | development of hyperglycemia and hyperinsulinemia (fasting blood glucose, plasma insulin, HOMA-IR) ([2]; concurrent weekly treatment, HFD): completely prevent | development of HFD-induced impaired glucose tolerance (GTT) ([2]; concurrent weekly treatment, GTT at 5 and 10 weeks): completely prevent | development of HFD-induced insulin resistance (ITT) ([2]; concurrent weekly treatment, ITT at 6 and 11 weeks): completely prevent | development of hyperleptinemia, hypercholesterolemia, hypertriglyceridemia, hyper-free fatty acidemia ([2]; fasting plasma at 12 weeks of HFD): completely prevent
